Molecular target: canine TNF-alpha (canine) (UniProt P51742)
Assay: cell-based or functional assay

canine TNF-alpha (canine), sequence (P51742 77-233 limits assumed): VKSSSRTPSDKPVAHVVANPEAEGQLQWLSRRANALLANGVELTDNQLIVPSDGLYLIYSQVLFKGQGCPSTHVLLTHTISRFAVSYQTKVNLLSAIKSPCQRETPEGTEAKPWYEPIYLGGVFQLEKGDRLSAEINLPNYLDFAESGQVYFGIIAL

For “human TNFR-canine HCB control fusion protein (human TNFR extracellular domain fused N-terminally to canine HCB hinge-CH2-CH3) (Fc fusion)”, the inhibition of canine TNF-alpha bioactivity (1 ng/ml) in 293-HEK cells with NF-kB-EGFP reporter construct pTRH1; IC50 was 1 ng/ml.

Reference: patent US20150037333A1
